Test results: PMC6859848 (2019)
Like-named read-outs stand apart in the source and are kept apart here. Values belong to the molecule of their own block, whether it stands above or below them.

How the values were obtained:
[1] = tested on: rG1 (5'-Alexa Fluor 647) (RNA, G4) ACCGGGGCAGGGGAAGAGGGGG; experiment: fluorescence quenching titration; conditions: K+ 100 mM (KCl); 10 mM Tris, 5% DMSO; 100 nM RNA; single site fit; apparent
HNRNPH1 full-length [2] = target: T1, HNRNPH1 full-length (UniProt P31943 1-449); experiment: competition
T1 sequence: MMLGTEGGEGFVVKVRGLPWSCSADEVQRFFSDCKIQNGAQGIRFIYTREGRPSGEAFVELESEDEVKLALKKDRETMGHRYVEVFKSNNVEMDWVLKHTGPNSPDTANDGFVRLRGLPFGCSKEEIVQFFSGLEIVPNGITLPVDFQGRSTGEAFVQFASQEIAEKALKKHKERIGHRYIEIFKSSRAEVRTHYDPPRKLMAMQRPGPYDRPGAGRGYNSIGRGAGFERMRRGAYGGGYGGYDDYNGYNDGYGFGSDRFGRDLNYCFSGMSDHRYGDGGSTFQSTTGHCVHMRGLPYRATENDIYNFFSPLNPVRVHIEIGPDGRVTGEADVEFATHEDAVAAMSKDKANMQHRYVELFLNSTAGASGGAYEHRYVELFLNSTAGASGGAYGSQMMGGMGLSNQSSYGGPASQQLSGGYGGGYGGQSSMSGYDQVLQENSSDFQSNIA

HNRNPH1 full-length [3] = target: T1, HNRNPH1 full-length; experiment: EMSA
[4] = target: T2, HNRNPH1 qRRM2-3 (qRRM2-GYR-qRRM3) (UniProt P31943 103-381); experiment: SPR
T2 sequence: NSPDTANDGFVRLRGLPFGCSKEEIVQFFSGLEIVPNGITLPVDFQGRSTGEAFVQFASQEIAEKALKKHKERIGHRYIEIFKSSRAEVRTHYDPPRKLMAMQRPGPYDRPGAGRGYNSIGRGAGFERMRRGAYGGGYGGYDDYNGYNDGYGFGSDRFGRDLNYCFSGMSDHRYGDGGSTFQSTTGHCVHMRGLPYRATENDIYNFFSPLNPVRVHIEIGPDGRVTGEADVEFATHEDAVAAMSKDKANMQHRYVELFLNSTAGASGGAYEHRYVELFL

HNRNPH1 qRRM1 = target: T3, HNRNPH1 qRRM1 (UniProt P31943 1-102); experiment: SPR
T3 sequence: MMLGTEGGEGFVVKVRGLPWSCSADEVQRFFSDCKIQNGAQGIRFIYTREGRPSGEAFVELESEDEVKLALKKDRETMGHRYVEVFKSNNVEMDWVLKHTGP

HNRNPH1 delta1-103 = target: T4, HNRNPH1 delta1-103 (UniProt P31943 104-449, del1-103); experiment: SPR
T4 sequence: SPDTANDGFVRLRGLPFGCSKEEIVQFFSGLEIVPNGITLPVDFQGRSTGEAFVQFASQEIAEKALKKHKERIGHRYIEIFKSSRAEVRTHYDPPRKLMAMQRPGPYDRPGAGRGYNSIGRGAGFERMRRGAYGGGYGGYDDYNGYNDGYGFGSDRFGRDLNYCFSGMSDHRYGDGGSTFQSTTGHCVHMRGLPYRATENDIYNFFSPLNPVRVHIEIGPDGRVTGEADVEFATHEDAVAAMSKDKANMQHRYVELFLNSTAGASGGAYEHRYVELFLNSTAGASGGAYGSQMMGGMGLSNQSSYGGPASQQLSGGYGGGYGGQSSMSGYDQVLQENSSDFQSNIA

HNRNPH1 qRRM3 = target: T5, HNRNPH1 qRRM3 (UniProt P31943 277-381); experiment: SPR
T5 sequence: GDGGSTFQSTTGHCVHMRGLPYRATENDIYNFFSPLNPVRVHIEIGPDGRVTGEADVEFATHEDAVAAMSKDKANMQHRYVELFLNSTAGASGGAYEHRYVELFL

HNRNPH1 full-length [5] = target: T1, HNRNPH1 full-length; experiment: SPR
HNRNPH1 qRRM2 = target: T6, HNRNPH1 qRRM2 (UniProt P31943 103-194); experiment: SPR
T6 sequence: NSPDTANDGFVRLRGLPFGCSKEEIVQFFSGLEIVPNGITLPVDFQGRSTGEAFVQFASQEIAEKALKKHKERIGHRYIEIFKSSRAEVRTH

HNRNPH1 qRRM1-2 = target: T7, HNRNPH1 qRRM1-2 (UniProt P31943 1-194); experiment: SPR
T7 sequence: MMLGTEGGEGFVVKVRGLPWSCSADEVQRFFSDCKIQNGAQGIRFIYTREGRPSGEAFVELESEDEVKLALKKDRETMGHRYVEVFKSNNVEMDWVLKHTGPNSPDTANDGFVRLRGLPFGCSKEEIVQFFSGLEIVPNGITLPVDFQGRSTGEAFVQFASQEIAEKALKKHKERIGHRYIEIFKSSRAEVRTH

HNRNPH1 full-length [6] = target: T1, HNRNPH1 full-length; experiment: EMSA; remark: listed apart in the source
HNRNPH1 full-length [7] = target: T1, HNRNPH1 full-length; experiment: antibody-based RNA binding assay

KD^app [1]: 4600 nM
Molecule: NCCOc1cc(C(=O)Nc2cc(OCCN)c3ccccc3n2)nc(C(=O)Nc2cc(OCCN)c3ccccc3n2)c1

Molecule: ACCGGGGCAGGGGAAGAGGGGGAUU (structured_RNA) [rG1 nonbiotinylated competitor]
IC50 (HNRNPH1 full-length [2]): 84 nM

Molecule: AGCAGAGGUGGGCGGGGAGGAGGAC (ssRNA) [rG2a]
binding result (HNRNPH1 full-length [3]): binds

Molecule: ACCGGGGCAGGGGAAGAGGGGG (structured_RNA) [rG1 5'-biotin (SPR)]
Kd [4]: 97 nM | Kd (HNRNPH1 qRRM1): 30 nM | Kd (HNRNPH1 delta1-103): 2.4 nM | Kd (HNRNPH1 qRRM3): 315 nM | Kd (HNRNPH1 full-length [5]): 4.8 nM | Kd (HNRNPH1 qRRM2): 22 nM | Kd (HNRNPH1 qRRM1-2): 1.5 nM

Molecule: GAUCGUGGAGGCAUGAGCAGAGGUG (ssRNA) [Linker]
binding result (HNRNPH1 full-length [6]): no binding

Molecule: ACCGGGGCAGGGGAAGAGGGGGAUU (structured_RNA) [rG1 3'-biotin]
Kd (HNRNPH1 full-length [7]): 30 ± 2 nM

Molecule: GUGGGCGGGGAGGAGGACGCGGUGGAAU (ssRNA) [rG2b]
binding result (HNRNPH1 full-length [3]): binds
